Data taken from the Immune Epitope Database (IEDB).
pKd: −log10 of the molar value.

How the values were obtained:
HLA-A*69:01 [1] = assay: IEDB peptide-MHC binding, purified MHC/competitive/fluorescence; filed as Kd, often an IC50 or EC50 that approximates it; ≥ and ≤ were set here for values at or beyond the usual limits of such assays; conditions: source organism: Vaccinia virus Copenhagen
HLA-A*02:06 = assay: as above
HLA-A*02:01 [2] = assay: as above
HLA-A*11:01 = assay: IEDB peptide-MHC binding, purified MHC/direct/fluorescence; filed as Kd, often an IC50 or EC50 that approximates it; ≥ and ≤ were set here for values at or beyond the usual limits of such assays
HLA-B*48:01 = assay: as above
HLA-A*03:01 [3] = assay: as above
HLA-B*08:02 = assay: as above
HLA-A*01:01 [4] = assay: as above
HLA-B*57:01 = assay: as above
HLA-B*27:05 = assay: as above
HLA-B*15:01 [5] = assay: as above
HLA-A*26:01 = assay: as above
HLA-A*31:01 = assay: as above
HLA-B*58:01 = assay: as above
HLA-B*15:17 = assay: as above
HLA-B*46:01 = assay: as above
HLA-B*40:01 = assay: as above
HLA-A*24:03 = assay: as above
HLA-A*02:12 = assay: as above
HLA-A*02:19 = assay: as above
HLA-B*18:01 = assay: as above
HLA-A*02:16 = assay: as above
HLA-B*51:01 [6] = assay: as above; conditions: source organism: Encephalitozoon cuniculi GB-M1
HLA-B*27:03 = assay: as above
HLA-A*03:01 [7] = assay: IEDB peptide-MHC binding, purified MHC/competitive/fluorescence; filed as Kd, often an IC50 or EC50 that approximates it; ≥ and ≤ were set here for values at or beyond the usual limits of such assays; conditions: source organism: Yersinia pestis Nepal516
HLA-A*01:01 [8] = assay: as above; conditions: source organism: Yersinia pestis Nepal516
HLA-B*15:01 [9] = assay: as above; conditions: source organism: Yersinia pestis Nepal516
HLA-A*69:01 [10] = assay: IEDB peptide-MHC binding, purified MHC/direct/fluorescence; filed as Kd, often an IC50 or EC50 that approximates it; ≥ and ≤ were set here for values at or beyond the usual limits of such assays
HLA-A*68:02 = assay: as above; conditions: source organism: Yersinia enterocolitica subsp. enterocolitica 8081
HLA-A*02:01 [11] = assay: as above; conditions: source organism: Yersinia enterocolitica subsp. enterocolitica 8081
HLA-A*02:11 = assay: as above; conditions: source organism: Yersinia enterocolitica subsp. enterocolitica 8081
HLA-B*39:01 = assay: as above
HLA-A*02:03 = assay: as above; conditions: source organism: Yersinia enterocolitica subsp. enterocolitica 8081
HLA-B*07:02 = assay: IEDB peptide-MHC binding, purified MHC/competitive/fluorescence; filed as Kd, often an IC50 or EC50 that approximates it; ≥ and ≤ were set here for values at or beyond the usual limits of such assays
HLA-B*51:01 [12] = assay: as above; conditions: source organism: Escherichia coli 536
HLA-B*08:01 = assay: as above; conditions: source organism: Escherichia coli 536
[13] = source organism: Vaccinia virus Copenhagen
[14] = source organism: Encephalitozoon cuniculi GB-M1
[15] = source organism: Yersinia enterocolitica subsp. enterocolitica 8081
[16] = source organism: Mycobacterium tuberculosis
[17] = source organism: Burkholderia mallei NCTC 10229
[18] = source organism: Burkholderia mallei
[19] = source organism: Burkholderia mallei ATCC 23344

**Q.** YKDANISMY was tested. Which pKd (HLA-A*69:01 [1]) did it give?
**A.** Its pKd is 5.98.

**Q.** And the pKd (HLA-A*02:06; [13])?
**A.** The pKd was 6.97.

**Q.** What about the pKd (HLA-A*02:01 [2]; [13]) of the same sequence?
**A.** Its pKd is 6.95.

**Q.** What about the pKd (HLA-A*11:01; source organism: Cowpox virus) of the same sequence?
**A.** Its pKd is ≤ 4.70.

**Q.** And the pKd (HLA-B*48:01; source organism: Cowpox virus)?
**A.** The pKd was ≤ 4.70.

**Q.** What about the pKd (HLA-A*03:01 [3]; source organism: Cowpox virus) of the same sequence?
**A.** The pKd was ≤ 4.70.

**Q.** What about the pKd (HLA-B*08:02; source organism: Variola virus) of the same sequence?
**A.** Its pKd is ≤ 4.70.

**Q.** And the pKd (HLA-A*01:01 [4]; source organism: Cowpox virus)?
**A.** The pKd was ≤ 4.70.

**Q.** And the pKd (HLA-B*57:01; source organism: Cowpox virus)?
**A.** The pKd was ≤ 4.70.

**Q.** What about the pKd (HLA-B*27:05; source organism: Cowpox virus) of the same sequence?
**A.** Its pKd is ≤ 4.70.

**Q.** What about the pKd (HLA-B*15:01 [5]; source organism: Cowpox virus) of the same sequence?
**A.** The pKd was ≤ 4.70.

**Q.** And the pKd (HLA-A*26:01; source organism: Variola virus)?
**A.** Its pKd is ≤ 4.70.

**Q.** And the pKd (HLA-A*31:01; source organism: Cowpox virus)?
**A.** The pKd was ≤ 4.70.

**Q.** What about the pKd (HLA-B*58:01; source organism: Cowpox virus) of the same sequence?
**A.** Its pKd is ≤ 4.70.

**Q.** What about the pKd (HLA-B*15:17; source organism: Cowpox virus) of the same sequence?
**A.** The pKd was ≤ 4.70.

**Q.** And the pKd (HLA-B*46:01; source organism: Cowpox virus)?
**A.** Its pKd is ≤ 4.70.

**Q.** What about the pKd (HLA-B*40:01; source organism: Cowpox virus) of the same sequence?
**A.** The pKd was ≤ 4.70.

**Q.** Which results are given for HPYVFCALL?
**A.** pKd (HLA-A*24:03; [14]): ≤ 4.70; pKd (HLA-A*03:01 [3]; [14]): ≤ 4.70; pKd (HLA-A*02:12; [14]): ≤ 4.70; pKd (HLA-B*57:01; [14]): ≤ 4.70; pKd (HLA-B*15:01 [5]; [14]): ≤ 4.70; pKd (HLA-A*02:19; [14]): ≤ 4.70; pKd (HLA-A*26:01; [14]): ≤ 4.70; pKd (HLA-B*18:01; [14]): ≤ 4.70; pKd (HLA-A*02:16; [14]): ≤ 4.70; pKd (HLA-B*51:01 [6]): 5.53; pKd (HLA-B*27:03; [14]): ≤ 4.70; pKd (HLA-B*46:01; [14]): ≤ 4.70

**Q.** How did the pKd (HLA-A*03:01 [7]) turn out when NTLGITHLY was run?
**A.** The pKd was ≤ 4.70.

**Q.** And the pKd (HLA-A*01:01 [8])?
**A.** Its pKd is 7.35.

**Q.** And the pKd (HLA-B*15:01 [9])?
**A.** Its pKd is 5.52.

**Q.** How did the pKd (HLA-A*69:01 [10]; [15]) turn out when KSRQGDTKV was run?
**A.** The pKd was ≤ 4.70.

**Q.** What about the pKd (HLA-A*24:03; [15]) of the same sequence?
**A.** The pKd was ≤ 4.70.

**Q.** And the pKd (HLA-A*03:01 [3]; [15])?
**A.** The pKd was ≤ 4.70.

**Q.** What about the pKd (HLA-A*02:12; [15]) of the same sequence?
**A.** The pKd was ≤ 4.70.

**Q.** And the pKd (HLA-A*68:02)?
**A.** Its pKd is ≤ 4.70.

**Q.** And the pKd (HLA-B*57:01; [15])?
**A.** Its pKd is ≤ 4.70.

**Q.** And the pKd (HLA-B*15:01 [5]; [15])?
**A.** The pKd was ≤ 4.70.

**Q.** And the pKd (HLA-A*02:01 [11])?
**A.** Its pKd is ≤ 4.70.

**Q.** What about the pKd (HLA-A*02:19; [15]) of the same sequence?
**A.** The pKd was ≤ 4.70.

**Q.** And the pKd (HLA-A*26:01; [15])?
**A.** Its pKd is ≤ 4.70.

**Q.** And the pKd (HLA-B*18:01; [15])?
**A.** The pKd was ≤ 4.70.

**Q.** What about the pKd (HLA-A*02:11) of the same sequence?
**A.** Its pKd is ≤ 4.70.

**Q.** And the pKd (HLA-A*02:16; [15])?
**A.** The pKd was ≤ 4.70.

**Q.** What about the pKd (HLA-B*39:01; [15]) of the same sequence?
**A.** Its pKd is ≤ 4.70.

**Q.** What about the pKd (HLA-B*27:03; [15]) of the same sequence?
**A.** Its pKd is ≤ 4.70.

**Q.** And the pKd (HLA-B*15:17; [15])?
**A.** The pKd was 6.55.

**Q.** And the pKd (HLA-B*46:01; [15])?
**A.** The pKd was ≤ 4.70.

**Q.** What about the pKd (HLA-A*02:03) of the same sequence?
**A.** Its pKd is ≤ 4.70.

**Q.** With HPYKIPATV as the sequence, how does the pKd (HLA-B*07:02; source organism: Escherichia coli 536) read?
**A.** Its pKd is 6.71.

**Q.** What about the pKd (HLA-B*51:01 [12]) of the same sequence?
**A.** The pKd was 6.51.

**Q.** And the pKd (HLA-B*08:01)?
**A.** Its pKd is 6.40.

**Q.** With LPSWLLAPV as the sequence, how does the pKd (HLA-B*07:02; source organism: Salmonella enterica subsp. enterica serovar Typhi) read?
**A.** The pKd was 7.18.

**Q.** How did the pKd (HLA-A*02:12; [16]) turn out when SIYYTLVRM was run?
**A.** Its pKd is ≤ 4.70.

**Q.** What about the pKd (HLA-B*57:01; [16]) of the same sequence?
**A.** The pKd was ≤ 4.70.

**Q.** And the pKd (HLA-B*15:01 [5]; [16])?
**A.** The pKd was ≤ 4.70.

**Q.** What about the pKd (HLA-A*02:19; [16]) of the same sequence?
**A.** The pKd was ≤ 4.70.

**Q.** And the pKd (HLA-A*26:01; [16])?
**A.** Its pKd is ≤ 4.70.

**Q.** And the pKd (HLA-B*18:01; [16])?
**A.** Its pKd is ≤ 4.70.

**Q.** And the pKd (HLA-B*39:01; [16])?
**A.** The pKd was ≤ 4.70.

**Q.** What about the pKd (HLA-B*27:03; [16]) of the same sequence?
**A.** The pKd was ≤ 4.70.

**Q.** And the pKd (HLA-B*15:17; [16])?
**A.** Its pKd is 6.59.

**Q.** What about the pKd (HLA-B*46:01; [16]) of the same sequence?
**A.** Its pKd is ≤ 4.70.

**Q.** Which results are given for IYDFYNAEY?
**A.** pKd (HLA-A*02:06; [17]): 7.27; pKd (HLA-A*02:01 [2]; [17]): 6.86; pKd (HLA-A*11:01; [18]): ≤ 4.70; pKd (HLA-A*69:01 [10]; [18]): ≤ 4.70; pKd (HLA-B*48:01; [18]): ≤ 4.70; pKd (HLA-A*03:01 [3]; [18]): ≤ 4.70; pKd (HLA-B*08:02; [19]): ≤ 4.70; pKd (HLA-A*01:01 [4]; [18]): 5.75; pKd (HLA-B*57:01; [18]): ≤ 4.70; pKd (HLA-B*27:05; [18]): ≤ 4.70; pKd (HLA-B*15:01 [5]; [18]): ≤ 4.70; pKd (HLA-A*26:01; [19]): 7.04; pKd (HLA-A*31:01; [18]): ≤ 4.70; pKd (HLA-B*39:01; [19]): ≤ 4.70; pKd (HLA-B*58:01; [18]): ≤ 4.70; pKd (HLA-B*15:17; [18]): 5.29; pKd (HLA-B*40:01; [18]): ≤ 4.70
